The text below walks through data of article PMC9038631 (Journal of neuroendocrinology, 2022).

The target in the test is T1, aromatase (rat (endogenous in hypothalamus and …, UniProt P22443 1-508)).
T1 sequence (looked up): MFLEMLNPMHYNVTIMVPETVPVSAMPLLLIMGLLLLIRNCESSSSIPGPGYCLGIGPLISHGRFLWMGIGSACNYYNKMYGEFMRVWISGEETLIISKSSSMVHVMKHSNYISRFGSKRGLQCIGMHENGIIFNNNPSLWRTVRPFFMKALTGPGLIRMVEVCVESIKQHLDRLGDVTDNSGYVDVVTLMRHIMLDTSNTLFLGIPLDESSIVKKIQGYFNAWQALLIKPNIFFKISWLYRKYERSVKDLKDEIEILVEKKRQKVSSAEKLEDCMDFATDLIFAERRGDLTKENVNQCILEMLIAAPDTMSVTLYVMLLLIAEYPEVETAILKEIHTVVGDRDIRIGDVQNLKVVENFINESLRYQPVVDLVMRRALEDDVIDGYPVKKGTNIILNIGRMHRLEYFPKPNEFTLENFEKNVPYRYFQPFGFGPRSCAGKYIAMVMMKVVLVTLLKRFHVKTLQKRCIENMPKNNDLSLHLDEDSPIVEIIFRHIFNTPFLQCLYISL
The test is described as follows: co-IP.

B1: protein phosphatase 5 (PP5) (enzyme, UniProt P53042 1-499, looked up)
chain: MAMAEGERTECAEPPRDEPPAEGTLKRAEELKTQANDYFKAKDYENAIKFYSQAIELNPSNAIYYGNRSLAYLRTECYGYALGDATRAIELDKKYIKGYYRRAASNMALGKFRAALRDYETVVKVKPNDKDAKMKYQECSKIVKQKAFERAIAGDEHRRSVVDSLDIESMTIEDEYSGPKLEDGKVTITFMKDLMQWYKDQKKLHRKCAYQILVQVKEVLCKLSTLVETTLKETEKITVCGDTHGQFYDLLNIFELNGLPSETNPYIFNGDFVDRGSFSVEVILTLFGFKLLYPDHFHLLRGNHETDNMNQIYGFEGEVKAKYTAQMYELFSEVFEWLPLAQCINGKVLIMHGGLFSEDGVTLDDIRKIERNRQPPDSGPMCDLLWSDPQPQNGRSVSKRGVSCQFGPDVTKAFLEENQLDYIIRSHEVKAEGYEVAHGGRCVTVFSAPNYCDQMGNKASYIHLQGSDLRPQFHQFTAVPHPNVKPMAYANTLLQLGMM
On to B1, for which the “fold more co-IPed with hypothalamic than with spinal aromatase” value was 5.4 fold.
